The nature of data set [1]: circular dichroism spectroscopy. The note with it: 1 mg/mL peptide, phosphate buffer 0.1 M, pH = 7.4, 25 °C, 1 cm cuvette, averages of five scans; negative peak around 200 nm. The format is physicochemical. On the procedure:
The circular dichroism spectra were measured with Jasco J-815 CD spectrometer equipped with thermostated cell holder in a rectangular 1 cm cuvette (Jasco Inc., Easton, MD, USA). Conditions: concentration of peptides = 1 mg/mL, phosphate buffer = 0.1 M, pH = 7.4, temperature = 25 °C. Spectra are presented as averages of five scans, and corrected for buffer spectrum.

For data set [2], the target named is T1, Erythropoietin P2 epitope peptide (Homo sapiens).
T1 chain: LKLYTGEACRTGDR
As to the kind of experiment: microscale thermophoresis.

For data set [3], the target named is T1, Erythropoietin P2 epitope peptide. As to the kind of experiment: tryptophan fluorescence titration.

Turning to LKLYTGEACRTGDR, the “secondary structure by CD spectroscopy” value in data set [1] was “random coil structure”.
Consider DFDIWPLRTAWPLS [EPO-P2 antisense peptide], for which the Kd in data set [2] was found to be 816 µM; in data set [3], 850 µM.

(Values after PMC4100090, “A Simple Three-Step Method for Design and Affinity Testing of New Antisense Peptides: An Example of Erythropoietin” (International Journal of Molecular Sciences, 2014).)
